Measurements: US11279770

Columns and labels:
[1] = target: human ErbB-2 (HER2) (human) (UniProt P04626); experiment: cell-based or functional assay
[2] = target: human ErbB-2 (HER2) (human) (UniProt P04626); experiment: FACS on stable K562-HER2 cells; negative control

Row | Substance | MCF-7 IC50 (pM), HRG dependent proliferation [1] [pM] | MFI [2] [MFI]
1 | trastuzumab + pertuzumab (1:1) | 352 | –
2 | Anti-RSV mAb (antibody) | – | 276
